The values that follow are results of earlier work, collected in PMC3423493.

Data set [1] deals with Sclerostin (Homo sapiens) (UniProt Q9BQB4).
In another data set the target is BMP2 (Homo sapiens) (UniProt P12643).
UniProt P12643, sequence (P12643 283-396): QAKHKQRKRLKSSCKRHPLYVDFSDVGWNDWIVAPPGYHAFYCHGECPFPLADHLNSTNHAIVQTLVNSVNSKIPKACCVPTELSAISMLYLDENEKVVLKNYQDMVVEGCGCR

UniProt Q9BQB4, sequence (Q9BQB4 24-213): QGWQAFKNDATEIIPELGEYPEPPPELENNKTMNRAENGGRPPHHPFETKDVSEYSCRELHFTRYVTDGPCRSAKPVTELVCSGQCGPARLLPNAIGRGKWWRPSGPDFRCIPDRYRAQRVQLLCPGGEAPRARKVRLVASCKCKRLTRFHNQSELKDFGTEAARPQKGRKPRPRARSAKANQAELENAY

In the case of Noggin (from UniProt Q13253), the Kd was 2.92 nM in data set [1] and 0.02 nM with BMP2 (Homo sapiens).
